In test [1] the target is T1, human TGF-βRII (human, UniProt P37173 23-567).
T1 chain: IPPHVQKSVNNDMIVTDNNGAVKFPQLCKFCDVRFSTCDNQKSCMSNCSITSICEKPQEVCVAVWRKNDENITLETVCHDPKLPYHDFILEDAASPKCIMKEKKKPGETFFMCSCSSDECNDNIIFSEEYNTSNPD
Kind of test: cell-based or functional assay.

In test [2] the target is T1, human TGF-βRII. Kind of test: cell-based or functional assay.

B1: Reference TGF-βRII antibody TGF1 analog (antibody, human IgG1, kappa, V domains shown)
VH: QLQVQESGPGLVKPSETLSLTCTVSGGSISNSYFSWGWIRQPPGKGLEWIGSFYYGEKTYYNPSLKSRATISIDTSKSQFSLKLSSVTAADTAVYYCPRGPTMIRGVIDSWGQGTLVTVSS
VL: EIVLTQSPATLSLSPGERATLSCRASQSVRSYLAWYQQKPGQAPRLLIYDASNRATGIPARFSGSGSGTDFTLTISSLEPEDFAVYYCQQRSNWPPTFGQGTKVEIKR
With B1, in test [1], the “HEK-BLUE-PD-1 TGF-β Reporter Assay, HEK-Blue TGF-β cells” value was determined as 0.806 and the “HEK-BLUE-PD-1 TGF-β Reporter Assay, HEK-Blue TGF-β-PD-1+ cells” value stood at 0.655. The “Fold difference pSMAD PD-1^null vs PD-1^+” value in test [2] amounted to 1.3 fold.

For the origin of these results see patent US20230159645A1 (MERUS N V, published 2023).
